Test results taken from patent publication US20090098127A1 (MEDICAL RESEARCH FUND OF TEL AVIV SOURASKY MEDICAL CENTER, published 2009).

B1: Flag-ΔG-MSF-A (p3×Flag-ΔG-MSF-A product) (other)
chain: MKKSYSGGTRTSSGRLRRLGDSSGPALKRSFEVEEVETPNSTPPRRVQTPLLRATVASSTQKFQDLGVKNSEPSARHVDSLSQRSPKASLRRVELSGPKAAEPVSRRTELSIDISSKQVENAGAIGPSRFGLKRAEVLGHKTPEPAPRRTEITIVKPQESAHRRMEPPASKVPEVPTAPATDAAPKRVEIQMPKPAEAPTAPSPAQTLENSEPAPVSQLQSRLEPKPQPPVAEATPRSQEATEAAPSCVGDMADTPRDAGLKQAPASRNEKAPVDFGYVGIDSILEQMRRKAMKQGFEFNIMVVTLINTLFKSKISRKSVQPTSEERIPKTIEIKSITHDIEEKGVRMKLTVIDTPGFGDHINNENCWQPIMKFINDQYEKYLQEEVNINRKKRIPDTRVHCCLYFIPATGHSLRPLDIEFMKRLSKVVNIVPVIAKADTLTLEERVHFKQRITADLLSNGIDVYPQKEFDEDSEDRLVNEKFREMIPFAVVGSDHEYQVNGKRILGRKTKWGTIEVENTTHCEFAYLRDLLIRTHMQNIKDITSSIHFEAYRVKRLNEGSSAMANGVEEKEPEAPEM
notes: also called AG-MSF-A; not shown: N-terminal Flag tag from vector p3×Flag-myc-CMV-25
B2: Flag-MSF-A (p3×Flag-MSF-A product, wild type) (other, not shown: small tags and cut ends)
chain: MKKSYSGGTRTSSGRLRRLGDSSGPALKRSFEVEEVETPNSTPPRRVQTPLLRATVASSTQKFQDLGVKNSEPSARHVDSLSQRSPKASLRRVELSGPKAAEPVSRRTELSIDISSKQVENAGAIGPSRFGLKRAEVLGHKTPEPAPRRTEITIVKPQESAHRRMEPPASKVPEVPTAPATDAAPKRVEIQMPKPAEAPTAPSPAQTLENSEPAPVSQLQSRLEPKPQPPVAEATPRSQEATEAAPSCVGDMADTPRDAGLKQAPASRNEKAPVDFGYVGIDSILEQMRRKAMKQGFEFNIMVVGQSGLGKSTLINTLFKSKISRKSVQPTSEERIPKTIEIKSITHDIEEKGVRMKLTVIDTPGFGDHINNENCWQPIMKFINDQYEKYLQEEVNINRKKRIPDTRVHCCLYFIPATGHSLRPLDIEFMKRLSKVVNIVPVIAKADTLTLEERVHFKQRITADLLSNGIDVYPQKEFDEDSEDRLVNEKFREMIPFAVVGSDHEYQVNGKRILGRKTKWGTIEVENTTHCEFAYLRDLLIRTHMQNIKDITSSIHFEAYRVKRLNEGSSAMANGVEEKEPEAPEM
notes: FLAG at the amino terminal of the recombinant protein; Expressed in HEK 293 or PC-3 cells and assayed in lysates; also called Flag-tagged MSF-A; recombinant MSF-A
B3: Flag-ΔN-MSF-A (p3×Flag-ΔN-MSF-A product) (other)
chain: ALKRSFEVEEVETPNSTPPRRVQTPLLRATVASSTQKFQDLGVKNSEPSARHVDSLSQRSPKASLRRVELSGPKAAEPVSRRTELSIDISSKQVENAGAIGPSRFGLKRAEVLGHKTPEPAPRRTEITIVKPQESAHRRMEPPASKVPEVPTAPATDAAPKRVEIQMPKPAEAPTAPSPAQTLENSEPAPVSQLQSRLEPKPQPPVAEATPRSQEATEAAPSCVGDMADTPRDAGLKQAPASRNEKAPVDFGYVGIDSILEQMRRKAMKQGFEFNIMVVGQSGLGKSTLINTLFKSKISRKSVQPTSEERIPKTIEIKSITHDIEEKGVRMKLTVIDTPGFGDHINNENCWQPIMKFINDQYEKYLQEEVNINRKKRIPDTRVHCCLYFIPATGHSLRPLDIEFMKRLSKVVNIVPVIAKADTLTLEERVHFKQRITADLLSNGIDVYPQKEFDEDSEDRLVNEKFREMIPFAVVGSDHEYQVNGKRILGRKTKWGTIEVENTTHCEFAYLRDLLIRTHMQNIKDITSSIHFEAYRVKRLNEGSSAMANGVEEKEPEAPEM
notes: Deletion of the first 25 amino acids of MSF-A; also called N-terminal truncated form of MSF-A; not shown: N-terminal Flag tag from vector p3×FLAG-myc-CMV-25

Experiments:
[1] = molecular target: T1, hypoxia-inducible factor 1, alpha subunit isoform 1 (HIF-1α), untagged (human, UniProt Q16665 1-826); test: IP with HIF-1α antibody, Flag immunoblot, HEK 293 cells
T1 construct: Stands for both endogenous HIF-1α (PC-3, CL-1, HEK 293) and the untagged wild-type protein expressed from pcDNA3.1-HIF-1α; also called HIF-1 alpha; pcDNA3.1-HIF-1α product
T1 sequence (Q16665 whole entry, canonical isoform): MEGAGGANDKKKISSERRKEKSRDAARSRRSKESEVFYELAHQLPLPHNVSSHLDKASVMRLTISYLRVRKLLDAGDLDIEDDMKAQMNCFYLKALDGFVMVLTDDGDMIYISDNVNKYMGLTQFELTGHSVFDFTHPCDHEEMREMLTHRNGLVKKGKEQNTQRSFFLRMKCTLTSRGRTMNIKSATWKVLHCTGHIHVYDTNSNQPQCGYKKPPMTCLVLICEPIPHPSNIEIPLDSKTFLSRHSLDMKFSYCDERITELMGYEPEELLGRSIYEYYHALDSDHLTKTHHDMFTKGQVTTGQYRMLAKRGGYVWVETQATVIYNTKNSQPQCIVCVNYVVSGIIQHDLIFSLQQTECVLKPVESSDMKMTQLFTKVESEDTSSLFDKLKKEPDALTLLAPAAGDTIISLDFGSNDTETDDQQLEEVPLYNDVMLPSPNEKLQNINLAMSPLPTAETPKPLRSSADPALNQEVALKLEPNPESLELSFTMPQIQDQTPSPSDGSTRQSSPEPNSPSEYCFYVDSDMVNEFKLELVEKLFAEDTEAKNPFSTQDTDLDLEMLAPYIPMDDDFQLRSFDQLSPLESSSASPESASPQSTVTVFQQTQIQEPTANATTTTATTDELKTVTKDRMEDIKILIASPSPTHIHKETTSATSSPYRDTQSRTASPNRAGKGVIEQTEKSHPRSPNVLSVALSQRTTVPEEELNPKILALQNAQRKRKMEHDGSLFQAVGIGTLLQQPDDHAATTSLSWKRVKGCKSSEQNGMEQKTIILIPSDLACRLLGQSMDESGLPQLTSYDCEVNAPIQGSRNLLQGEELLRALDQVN

[2] = molecular target: T1, hypoxia-inducible factor 1, alpha …; test: cell-based or functional assay
HIF-1β = molecular target: T2, HIF-1β (UniProt P27540 2-789, limits assumed); test: co-IP with anti-Flag antibody, HIF-1β immunoblot, HEK 293 cells
T2 construct: Endogenous protein in HEK 293 lysates; also called HIF-1β protein
T2 sequence (P27540 2-789 limits assumed): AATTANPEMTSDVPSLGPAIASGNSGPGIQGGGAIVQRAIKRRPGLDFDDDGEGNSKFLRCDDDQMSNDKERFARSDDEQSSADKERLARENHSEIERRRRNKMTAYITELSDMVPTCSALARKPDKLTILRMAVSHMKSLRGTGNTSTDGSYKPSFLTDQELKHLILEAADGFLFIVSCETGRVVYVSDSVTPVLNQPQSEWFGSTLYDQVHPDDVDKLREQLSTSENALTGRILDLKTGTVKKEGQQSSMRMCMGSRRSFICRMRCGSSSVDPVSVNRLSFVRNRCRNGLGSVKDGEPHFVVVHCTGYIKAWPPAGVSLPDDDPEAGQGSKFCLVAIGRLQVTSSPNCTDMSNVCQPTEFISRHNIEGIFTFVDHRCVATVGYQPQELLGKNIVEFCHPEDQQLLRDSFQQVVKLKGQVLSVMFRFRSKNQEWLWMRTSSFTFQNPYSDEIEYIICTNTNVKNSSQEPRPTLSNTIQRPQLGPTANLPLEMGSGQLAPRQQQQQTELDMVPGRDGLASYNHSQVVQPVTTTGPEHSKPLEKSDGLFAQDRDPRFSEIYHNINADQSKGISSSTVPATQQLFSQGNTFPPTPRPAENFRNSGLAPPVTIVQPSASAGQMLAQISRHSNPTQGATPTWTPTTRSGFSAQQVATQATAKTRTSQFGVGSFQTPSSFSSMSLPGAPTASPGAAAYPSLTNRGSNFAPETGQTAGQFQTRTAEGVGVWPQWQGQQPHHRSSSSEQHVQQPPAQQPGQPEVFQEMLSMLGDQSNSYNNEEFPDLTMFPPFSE
Source text: FIGS. 3a-f are autoradiograms illustrating HIF-1α immunoblotting of FLAG immunoprecipitates (IP) (FIG. 3b) or whole cell extracts (WCE) (FIG. 3a), FLAG immunoblotting of HIF-1α IP (FIG. 3d) or WCE (FIG. 3c), and HIF-1β immunoblotting of FLAG IP (FIG. 3f) or WCE (FIG. 3e). HEK 293 cells were transiently co-transfected with two of the following expression vectors: p3×Flag-cmv-25 (EV), pcdna3.1-HIF-1α (HIF-1α) or p3×Flag-MSF-A (MSF-A), and two days following transfection under normoxic conditions WCE or IP were subjected to immunoblot (IB) analysis. Lane 1-EV and HIF-1α; lane 2-MSF-A and HIF-1α.
To confirm the interaction between the HIF-1α and the MSF-A proteins, HEK 293 cells were transiently co-transfected with the p3×Flag-MSF-A and the pcDNA3.1-HIF-1α vectors, and were grown for 24 hours under normoxic conditions (i.e., conditions of 20% oxygen), following which whole cell extracts (WCE) were subjected to co-immunoprecipitation (IP) using anti-FLAG or anti-HIF-1α antibodies. Following IP, the proteins were subjected to SDS-PAGE and immunoblotting (IB) using the counterpart antibody. As is shown in FIGS. 3a-d, following transfection with both expression vectors (i.e., pcDNA3.1-HIF-1α and p3×Flag-MSF-A) immunoprecipitates generated using either the anti-HIF-1α antibody or the anti-Flag antibody included the reciprocal proteins, i.e., the Flag-MSF-A or HIF-1α proteins, respectively.

p300 co-activator = molecular target: T3, p300 co-activator (UniProt Q09472 2-2414); test: co-IP with anti-Flag antibody, p300 immunoblot; association within the HIF-1α complex, may be indirect
T3 construct: Endogenous protein, detected with anti-p300 antibody (Santa Cruz); also called p300 protein
T3 sequence (Q09472 2-2414 limits assumed): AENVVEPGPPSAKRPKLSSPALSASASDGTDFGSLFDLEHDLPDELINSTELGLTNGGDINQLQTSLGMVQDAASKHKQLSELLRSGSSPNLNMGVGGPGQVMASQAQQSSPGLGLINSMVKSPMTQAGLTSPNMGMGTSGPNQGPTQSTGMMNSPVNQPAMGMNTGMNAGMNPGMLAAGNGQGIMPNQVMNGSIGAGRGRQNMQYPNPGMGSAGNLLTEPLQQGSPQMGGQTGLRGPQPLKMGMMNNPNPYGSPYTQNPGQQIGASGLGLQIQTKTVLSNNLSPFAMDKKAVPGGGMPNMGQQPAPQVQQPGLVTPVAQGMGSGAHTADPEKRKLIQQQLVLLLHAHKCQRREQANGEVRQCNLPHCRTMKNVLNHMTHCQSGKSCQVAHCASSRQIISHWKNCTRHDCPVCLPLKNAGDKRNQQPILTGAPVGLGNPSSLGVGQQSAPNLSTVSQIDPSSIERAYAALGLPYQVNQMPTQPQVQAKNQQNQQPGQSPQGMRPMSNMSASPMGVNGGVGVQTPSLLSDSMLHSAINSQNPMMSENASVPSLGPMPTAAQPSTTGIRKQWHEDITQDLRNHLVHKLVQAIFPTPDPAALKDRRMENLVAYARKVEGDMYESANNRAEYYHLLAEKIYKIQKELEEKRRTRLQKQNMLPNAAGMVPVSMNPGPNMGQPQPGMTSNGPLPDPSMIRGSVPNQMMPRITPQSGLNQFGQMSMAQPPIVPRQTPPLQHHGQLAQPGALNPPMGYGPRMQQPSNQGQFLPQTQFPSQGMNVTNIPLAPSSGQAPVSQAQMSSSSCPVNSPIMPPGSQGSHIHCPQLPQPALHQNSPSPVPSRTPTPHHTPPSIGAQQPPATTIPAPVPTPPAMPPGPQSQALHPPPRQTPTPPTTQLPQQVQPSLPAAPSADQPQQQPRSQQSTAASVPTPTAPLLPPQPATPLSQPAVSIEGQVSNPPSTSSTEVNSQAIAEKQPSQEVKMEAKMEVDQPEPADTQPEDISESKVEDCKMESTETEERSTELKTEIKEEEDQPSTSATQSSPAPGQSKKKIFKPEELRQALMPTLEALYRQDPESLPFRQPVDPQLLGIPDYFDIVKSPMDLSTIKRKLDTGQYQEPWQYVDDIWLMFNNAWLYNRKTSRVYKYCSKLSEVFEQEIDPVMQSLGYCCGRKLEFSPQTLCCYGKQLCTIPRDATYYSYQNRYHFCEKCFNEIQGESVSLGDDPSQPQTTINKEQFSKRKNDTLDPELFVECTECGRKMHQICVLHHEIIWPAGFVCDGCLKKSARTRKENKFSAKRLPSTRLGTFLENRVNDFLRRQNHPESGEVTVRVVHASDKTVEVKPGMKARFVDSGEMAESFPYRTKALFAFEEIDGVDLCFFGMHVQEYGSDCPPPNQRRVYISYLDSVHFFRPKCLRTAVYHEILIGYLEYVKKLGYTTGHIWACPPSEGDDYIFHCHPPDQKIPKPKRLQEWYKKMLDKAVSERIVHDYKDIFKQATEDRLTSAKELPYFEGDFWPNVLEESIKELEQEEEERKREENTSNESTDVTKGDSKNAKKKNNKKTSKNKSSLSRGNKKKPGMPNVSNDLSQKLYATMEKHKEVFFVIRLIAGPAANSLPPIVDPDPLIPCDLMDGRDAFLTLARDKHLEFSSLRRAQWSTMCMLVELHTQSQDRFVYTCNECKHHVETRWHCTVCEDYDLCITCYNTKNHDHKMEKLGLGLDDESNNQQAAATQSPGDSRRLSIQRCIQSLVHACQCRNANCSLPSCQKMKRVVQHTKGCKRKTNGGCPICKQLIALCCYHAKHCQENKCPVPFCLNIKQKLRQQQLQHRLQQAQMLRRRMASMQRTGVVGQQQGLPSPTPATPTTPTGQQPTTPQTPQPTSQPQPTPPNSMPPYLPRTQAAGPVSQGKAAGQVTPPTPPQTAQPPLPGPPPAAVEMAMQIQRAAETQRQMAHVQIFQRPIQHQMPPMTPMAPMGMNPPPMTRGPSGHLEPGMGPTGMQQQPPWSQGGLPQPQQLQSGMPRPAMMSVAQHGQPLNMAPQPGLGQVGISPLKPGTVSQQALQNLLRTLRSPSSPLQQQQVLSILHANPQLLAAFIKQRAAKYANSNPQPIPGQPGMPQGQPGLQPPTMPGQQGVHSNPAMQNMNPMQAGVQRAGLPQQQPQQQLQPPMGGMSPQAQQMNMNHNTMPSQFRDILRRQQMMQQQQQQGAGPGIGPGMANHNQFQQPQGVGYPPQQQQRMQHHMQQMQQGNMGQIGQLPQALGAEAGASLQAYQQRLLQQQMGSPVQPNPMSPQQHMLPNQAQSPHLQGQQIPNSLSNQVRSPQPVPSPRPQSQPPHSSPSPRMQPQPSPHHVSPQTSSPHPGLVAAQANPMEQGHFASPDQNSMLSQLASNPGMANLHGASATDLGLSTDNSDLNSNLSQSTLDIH
Experimental: The p300 co-activator is associated with HIF-1α and MSF-A proteins—To test the hypothesis that proteins, which are known to interact with the HIF-1α protein, such as the co-activator p300, are associated with MSF-A and HIF-1α, cells were co-transfected with the pcDNA3.1-HIF-1α and the p3×Flag-MSF-A expression vectors and IP experiments were performed using either anti-FLAG or anti-HIF-1α antibodies. As shown in FIGS. 5a-c, while the anti-HIF-1α antibody was capable of precipitating the p300 protein in both cells co-transfected with the pcDNA3.1-HIF-1α and the p3×Flag-cmv-25 expression vector alone and cells co-transfected with the pcDNA3.1-HIF-1α and the p3×Flag-MSF-A vectors, the anti-Flag antibody was capable of precipitating the p300 protein only in cells that were co-transfected with the pcDNA3.1-HIF-1α and the p3×Flag-MSF-A vectors.

Row | Binder | binding result [1] | degradation half-life of HIF-1α (cycloheximide, PC-3-MSF-A cells against PC-3-Neo cells) [2] [min] | half-life of HIF-1α protein (pulse-chase, PC-3-MSF-A cells against PC-3-Neo cells) [2] [min] | luciferase activity (HRE reporter), hypoxia as compared to normoxia, PC-3 cells [2] [fold] | binding result (HIF-1β) | binding result (p300 co-activator)
1 | B1 | binds |  |  |  |  | 
2 | B2 |  | 40 | ~45 | 50 | no binding | binds
3 | B3 | binds |  |  |  |  | 
